Measurements taken from publication PMC5645147, “Binding of a C-type lectin’s coiled-coil domain to the Domeless receptor directly activates the JAK/STAT pathway in the shrimp immune response to bacterial infection”.

Target: T1, native STAT, LPS-challenged shrimp (Marsupenaeus japonicus (kuruma shrimp), UniProt D0VYJ1 1-801)
T1 sequence: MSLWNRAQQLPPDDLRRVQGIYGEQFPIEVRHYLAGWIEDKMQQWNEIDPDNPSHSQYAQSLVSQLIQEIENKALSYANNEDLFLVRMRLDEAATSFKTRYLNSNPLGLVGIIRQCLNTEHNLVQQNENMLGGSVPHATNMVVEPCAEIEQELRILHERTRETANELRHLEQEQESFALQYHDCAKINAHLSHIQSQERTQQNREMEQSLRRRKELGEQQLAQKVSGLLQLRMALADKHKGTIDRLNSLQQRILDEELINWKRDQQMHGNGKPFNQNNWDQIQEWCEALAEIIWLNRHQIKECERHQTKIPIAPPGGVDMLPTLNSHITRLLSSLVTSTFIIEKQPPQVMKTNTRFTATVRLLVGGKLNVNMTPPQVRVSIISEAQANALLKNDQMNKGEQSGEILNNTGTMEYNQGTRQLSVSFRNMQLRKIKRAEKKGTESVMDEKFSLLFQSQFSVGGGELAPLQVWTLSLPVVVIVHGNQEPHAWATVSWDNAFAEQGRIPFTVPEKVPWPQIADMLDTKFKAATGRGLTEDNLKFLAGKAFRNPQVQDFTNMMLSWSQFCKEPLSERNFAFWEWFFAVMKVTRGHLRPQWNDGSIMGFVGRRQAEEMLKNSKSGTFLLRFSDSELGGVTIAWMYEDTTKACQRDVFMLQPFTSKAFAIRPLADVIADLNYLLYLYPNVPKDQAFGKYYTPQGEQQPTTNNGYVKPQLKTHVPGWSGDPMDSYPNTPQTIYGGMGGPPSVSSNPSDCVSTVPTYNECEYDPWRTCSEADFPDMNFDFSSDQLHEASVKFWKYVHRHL
Assay: EMSA; STAT from LPS-injected shrimp; binding increased; 2 ug protein, 20 fmol Dig-probe, Beyotime EMSA binding buffer (from 5x; composition and pH not stated), 20 min with probe, room temperature (stated for competition); 6% PAGE, 0.5x TBE
Details: chain copies: 2, blunt

B1: CruI-1 promoter STAT probe (dsDNA)
DNA 1: GCGTAAGGTTTTCTTGGAATA
DNA 2: TATTCCAAGAAAACCTTACGC
- binding result: binds
